Results as given in patent US7109303.

Columns and labels:
[1] = biological target: murine p55 receptor (on mouse L-M cells) (murine) (UniProt P25118); test: cell-based or functional assay
[2] = biological target: TNF receptors (on L-M mouse fibroblasts); test: cell-based or functional assay

Sequence of UniProt P25118 (P25118 30-454): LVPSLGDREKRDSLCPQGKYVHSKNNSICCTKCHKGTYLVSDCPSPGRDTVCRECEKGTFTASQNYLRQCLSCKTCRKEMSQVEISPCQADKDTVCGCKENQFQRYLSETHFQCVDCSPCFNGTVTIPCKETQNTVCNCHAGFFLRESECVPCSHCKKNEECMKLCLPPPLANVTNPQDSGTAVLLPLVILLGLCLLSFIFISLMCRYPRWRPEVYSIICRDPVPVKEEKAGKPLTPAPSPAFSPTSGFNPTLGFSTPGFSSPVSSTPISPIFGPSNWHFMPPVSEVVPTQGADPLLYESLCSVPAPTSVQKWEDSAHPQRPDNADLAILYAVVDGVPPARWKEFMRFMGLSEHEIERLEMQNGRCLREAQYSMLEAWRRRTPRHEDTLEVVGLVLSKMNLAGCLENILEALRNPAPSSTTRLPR

| in vitro cytolytic activity on mouse L-M cells [1] [units/mg] | Substance | in vitro cytotoxic activity, standard cytolytic assay with L-M cells [2] [units/mg] |
| --- | --- | --- |
| 5.09e+07 | human NGR-TNF (CNGRCG-TNF1-157), refolded (from UniProt P01375 1-233) | – |
| 6.11e+07 | human NGR-TNF (CNGRCG-TNF1-157), non-refolded (from UniProt P01375 1-233) | – |
| – | murine NGR-TNF (Cys-Asn-Gly-Arg-Cys-Gly-TNF1-156) (from UniProt P06804 80-235) | 1.8e+08 |
